B1: MNAT1 (parent)
chain: LAPIHKLEEALYEYQPLQIETYGP
B2: TBX5 (parent)
chain: YQNHKITQLKIENNPFAKGFRGSD
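Also: lentivirally expressed fusions sorted by FACS into six bins by GFP to DsRed ratio, PSI derived from sequencing read proportions per bin multiplied by bin number.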

Variants of B1 are the subject of the first data set. The experiment in a line: protein stability index of a GFP-peptide fusion (GPS, HEK-293T) (PSI 1-6); higher = more stable. Particulars: c terminus: a fixed tail appended.
For LAPIHKLEEALYEYQMLQIETYGP, the protein stability index worked out at 1.85.
On the same count and under the same terms, the figure for LAPIHKLEEALYEYQPLQIETLGP is 2.63.
Same read-out and setting: the figure for LAPIHKLEEALYEYQPLQIETPGP is 2.88.
The same measure, in the same setting: the figure for LAKIHKLEEALYEYQPLQIETYGP is 2.04; for LAHIHKLEEALYEYQPLQIETYGP it is 1.87; for LAPMHKLEEALYEYQPLQIETYGP it is 1.92.
LAPGHKLEEALYEYQPLQIETYGP: the protein stability index came to 3.06.
Consider LAPCHKLEEALYEYQPLQIETYGP, for which the protein stability index worked out at 2.49.
For the variant LAPFHKLEEALYEYQPLQIETYGP, the protein stability index was 1.88.
The same measure, in the same setting: the figure for LAPTHKLEEALYEYQPLQIETYGP is 2.15.
Still for that read-out and setting: the figure for LAPIHKLEEALYEYQPLQIEFYGP is 5.16.
In the case of LAPIHKLEEALYEYQPLQIENYGP, the protein stability index was determined as 2.5.
LAPIHKLEEALYEYQPLQIEEYGP: the protein stability index came out at 1.8.
With LAPIHKLEEALYEYQPWQIETYGP, the protein stability index was 1.95.
On the same count and under the same terms, the figure for LAPIHKLEEALYEYQPHQIETYGP is 3.03; for LAPIHKLEEALYEYQPGQIETYGP it is 3.12; for LAPIHKLEEALYEYQPCQIETYGP it is 2.51.
Still for that read-out and setting: the figure for LAPIHKLEEALYEYQPPQIETYGP is 2.89; for LAPIHKLEEALYEYQPAQIETYGP it is 2.5; for LAPIHKLEEALYTYQPLQIETYGP it is 2.14.
Still for that read-out and setting: the figure for LAPIHKLEEALYNYQPLQIETYGP is 1.61.
With LAPIHKLEEALFEYQPLQIETYGP, the protein stability index stood at 1.19.
As to LAPIHKLEEALKEYQPLQIETYGP, the protein stability index is 1.93.
The same measure, in the same setting: the figure for LAPIHKLEEALMEYQPLQIETYGP is 2.25; for LAPIHKLEEALWEYQPLQIETYGP it is 2.39.
Same read-out and setting: the figure for LAPIHKLEEALSEYQPLQIETYGP is 1.87; for LAPIHKQEEALYEYQPLQIETYGP it is 2.97; for LAPIHKTEEALYEYQPLQIETYGP it is 3.33.
The same measure, in the same setting: the figure for LAPIHKDEEALYEYQPLQIETYGP is 4.04; for LAPIHKCEEALYEYQPLQIETYGP it is 2.69.
Turning to LAPIHKMEEALYEYQPLQIETYGP, the protein stability index was 3.05.
The same measure, in the same setting: the figure for LAPIHKPEEALYEYQPLQIETYGP is 3.29.
Still for that read-out and setting: the figure for LAPIHPLEEALYEYQPLQIETYGP is 2.13.
Same read-out and setting: the figure for LAPIHSLEEALYEYQPLQIETYGP is 2.24; for LAPIHWLEEALYEYQPLQIETYGP it is 2.4.
On to LMPIHKLEEALYEYQPLQIETYGP, for which the protein stability index was 1.63.
Still for that read-out and setting: the figure for LGPIHKLEEALYEYQPLQIETYGP is 1.45; for LAPIHKLFEALYEYQPLQIETYGP it is 3.18; for LAPIHKLGEALYEYQPLQIETYGP it is 2.02.
Same read-out and setting: the figure for LAPIHKLEQALYEYQPLQIETYGP is 1.91; for LAPIHKLESALYEYQPLQIETYGP it is 1.71.
Same read-out and setting: the figure for LAPIHKLEHALYEYQPLQIETYGP is 2.15; for LAPIHKLECALYEYQPLQIETYGP it is 2.68; for LAPIHKLETALYEYQPLQIETYGP it is 2.16.
LAPIHKLEFALYEYQPLQIETYGP: the protein stability index turned out to be 2.25.
LAPIHKLEPALYEYQPLQIETYGP: the protein stability index was 2.25.
Same read-out and setting: the figure for LAPIHKLEWALYEYQPLQIETYGP is 2.08; for LAPIHKLEEALYEYQPLQIETYGH it is 1.58; for LAPIHKLEEALYEYQPLQIETYGD it is 1.95.
The same measure, in the same setting: the figure for LAPIHKLEEALYEYQPLQIETYGQ is 1.75; for LAPIHKLEEALYEYQPLQIETYGY it is 2.37; for LAPIHKLEEAMYEYQPLQIETYGP it is 2.34.
The same measure, in the same setting: the figure for LAPIHKLEEATYEYQPLQIETYGP is 2.57.
With LAPIHKLEEAPYEYQPLQIETYGP, the protein stability index came out at 3.17.
On the same count and under the same terms, the figure for LAPIHKLEEAWYEYQPLQIETYGP is 2.14; for LAPIHKLEEALYEYQPLQIHTYGP it is 1.6; for LAPIHKLEEALYEYQPLQIKTYGP it is 3.27.
On the same count and under the same terms, the figure for LAPIHKLEEALYEYLPLQIETYGP is 1.73.
On the same count and under the same terms, the figure for LAPIHKLEEALYEYDPLQIETYGP is 2.94; for LAPIPKLEEALYEYQPLQIETYGP it is 1.84.
As to LAPINKLEEALYEYQPLQIETYGP, the protein stability index came to 2.21.
Still for that read-out and setting: the figure for LAPIWKLEEALYEYQPLQIETYGP is 2.34; for LAPIHKLEEALYEYQPLQPETYGP it is 2.79.
Still for that read-out and setting: the figure for LAPIHKLEEALYEYQPLQNETYGP is 3.25; for LAPIHKLEEALYEYQPLQMETYGP it is 2.37.
On the same count and under the same terms, the figure for LAPIHKLEEALYEYQPLQRETYGP is 3.1.
As for LAPIHKLEEALYEYQPLQGETYGP, the protein stability index is 2.85.
On the same count and under the same terms, the figure for LAPIHKLEEALYEYQPLQIETYNP is 1.85; for LAPIHKLEEALYEYQPLQIETYEP it is 1.86; for LAPIHKLEEALYEYQPLQIETYPP it is 1.67.
Same read-out and setting: the figure for LAPIHKLEEALYEYQPLEIETYGP is 2.08.
On the same count and under the same terms, the figure for LAPIHKLEEALYEYQPLLIETYGP is 1.28; for LAPIHKLEEILYEYQPLQIETYGP it is 2.1.
LAPIHKLEEVLYEYQPLQIETYGP: the protein stability index is 2.71.
With LAPIHKLEESLYEYQPLQIETYGP, the protein stability index is 2.28.
Still for that read-out and setting: the figure for TAPIHKLEEALYEYQPLQIETYGP is 2.33; for HAPIHKLEEALYEYQPLQIETYGP it is 1.67.
In the case of GAPIHKLEEALYEYQPLQIETYGP, the protein stability index came to 1.98.
Still for that read-out and setting: the figure for LAPIHKLEEALYETQPLQIETYGP is 3.33; for LAPIHKLEEALYEPQPLQIETYGP it is 2.94.
The same measure, in the same setting: the figure for LAPIHKLEEALYEFQPLQIETYGP is 2.1.

Variants of B2 are the subject of another data set. Described as above. The note with it: c terminus: a fixed tail appended.
YQNHKITQLKIENNPFAKGFRQSD: the protein stability index came to 2.83.
The same measure, in the same setting: the figure for YQNHKITQLKIENNPFAKGFRDSD is 2.56; for YQNHKITQLKIENNPFAKGFRFSD it is 1.74; for YQNHKITQLKIENNPFAKGFRISD it is 2.48.
The same measure, in the same setting: the figure for YQNHKITQLKIENNPFAKGFRVSD is 2.32; for YQNHKITQLKIENNPFAKGFRNSD it is 2.4.
On the same count and under the same terms, the figure for YQNHKITQLKIENNPFAKGFRASD is 2.37; for YQNHKITQLKIENNPFAKGFRSSD it is 2.57.
With YQNHKITQLKIENNPFAKGFRRSD, the protein stability index was 2.12.
The same measure, in the same setting: the figure for YQNHKITQLKIENNPFAKGFRHSD is 2.46; for YQNHKITQLKIENNPFAKGFRTSD it is 2.67; for YQNHKITQLKIENNPFAKGFRYSD it is 2.63.
Same read-out and setting: the figure for YQNHKITQLKIENNPFAKGFRLSD is 2.02.

Source of the values: the supplement of paper PMC10567573.
